# Reference: the RNAGym collection of RNA variant scans (doi:10.1021/acssynbio.7b00057)
# B1: Pistol ribozyme (parent)
# chain: GGGUCGUUGUUCCAUAAUCGCGUGGAUAUGGCACGCAAGUUUCUACCGGGCACCGUAAAUGUCCGACUGGAGCCGUUCGGGCGGCUAUAAACAGACCUCAGGCCCGAAGCGUGGCGGCACCUGCCGCCGGUGGUAAAAAAGAUCGGAAGAGCACACGUCU
# Variants of: B1
# Assay: aptazyme ON/OFF ratio, guanine; higher = stronger switching; co-transcriptional cleavage with and without guanine
row,Variant,aptazyme ON/OFF ratio
1,U7C U8A G9C U10C C12A C13A,1.05
2,U7C U8A G9C U10C C12A C13G,1.07
3,U7C U8A G9C U10C C12A C13U,1.06
4,U7C U8A G9C U10C C12U,1.15
5,U7C U8A G9C U10C C12A,1.04
6,U7C U8A G9C U10C C12G,1.03
7,U7C U8A G9C U10G U11G,1.1
8,U7C U8A G9C U10G U11C,1.1
9,U7C U8A G9C U10G U11A,1.05
10,U7C U8A G9C U10C C12G C13U,1.07
11,U7C U8A G9C U10C C12G C13A,1.06
12,U7C U8A G9C U10C C12G C13G,1.07
13,U7C U8A G9U U10A U11G C12A C13U,1.14
14,U7C U8A G9U U10A U11G C12A C13A,1.09
15,U7C U8A G9U U10A U11G C12A C13G,1.15
16,U7C U8A G9C U10C U11C C12G C13U,1.04
17,U7C U8A G9C U10C U11C C12G C13A,1.04
18,U7C U8A G9C U10C U11C C12G C13G,1.04
19,U7C U8A G9U U10C C12G C13A,1.18
20,U7C U8A G9U U10C C12G C13G,1.28
21,U7C U8A G9U U10C C12G C13U,1.22

row,Variant,aptazyme ON/OFF ratio
1,U7C U8A G9C U10G U11A C12A,1.38
2,U7C U8A G9C U10G U11A C12G,1.32
3,U7C U8A G9C U10G U11A C12U,1.08
4,U7C U8A G9U,1.59
5,U7C U8A G9U U10A U11A C12A C13G,1.18
6,U7C U8A G9U U10A U11A C12A C13A,1.13
7,U7C U8A G9U U10A U11A C12A C13U,1.19
8,U7C U8A G9U U10C U11C C12U C13G,1.02
9,U7C U8A G9U U10C U11C C12U C13A,1.03
10,U7C U8A G9U U10C U11C C12U C13U,1.02
11,U7C U8A G9U U10C C12U,1.13
12,U7C U8A G9U U10C C12G,1.22
13,U7C U8A G9U U10C C12A,1.14
14,U7C U8A G9C U11G C13G,1.05
15,U7C U8A G9C U11G C13A,1.07
16,U7C U8A G9C U11G C13U,1.15
17,U7C U8A G9C U10C U11A C12A,1.03
18,U7C U8A G9C U10C U11A C12G,1.03
19,U7C U8A G9C U10C U11A C12U,1.06
20,U7C U8A G9C U10C U11G C13A,1.1
21,U7C U8A G9C U10C U11G C13U,1.16

row,Variant,aptazyme ON/OFF ratio
1,U7C U8A G9C U10C U11G C13G,1.06
2,U7C U8A G9C U10C U11A C12U C13G,1.05
3,U7C U8A G9C U10C U11A C12U C13U,1.04
4,U7C U8A G9C U10C U11A C12U C13A,1.04
5,U7C U8A G9U U10A U11G C12A,1.08
6,U7C U8A G9U U10A U11G C12G,1.14
7,U7C U8A G9U U10A U11G C12U,1.13
8,U7C U8A G9C U10G U11A C12G C13G,1.19
9,U7C U8A G9C U10G U11A C12G C13U,1.13
10,U7C U8A G9C U10G U11A C12G C13A,1.1
11,U7C U8A G9C U10C U11G C12A,1.11
12,U7C U8A G9C U10C U11G C12G,1.09
13,U7C U8A G9C U10C U11G C12U,1.08
14,U7C U8A G9C U10A U11G C13A,1.12
15,U7C U8A G9C U10A U11G C13G,1.02
16,U7C U8A G9C U10A U11G C13U,1.16
17,U7C U8A G9C U10G,1.97
18,U7C U8A G9C U10C,2.31
19,U7C U8A G9C U10G U11A C12U C13A,1.16
20,U7C U8A G9C U10G U11A C12U C13U,1.14
21,U7C U8A G9C U10G U11A C12U C13G,1.13

row,Variant,aptazyme ON/OFF ratio
1,U7C U8A G9U U10C U11A,1.27
2,U7C U8A G9U U10C U11C,1.01
3,U7C U8A G9U U10C U11G,1.06
4,U7C U8A G9C U10G C12U C13U,1.26
5,U7C U8A G9C U10G C12U C13A,1.18
6,U7C U8A G9C U10G C12U C13G,1.17
7,U7C U8A G9C U11G C12U C13A,1.18
8,U7C U8A G9C U11G C12U C13U,1.13
9,U7C U8A G9C U11G C12U C13G,1.14
10,U7C U8A G9U U10C U11A C12U C13U,1.15
11,U7C U8A G9U U10C U11A C12U C13G,1.09
12,U7C U8A G9U U10C U11A C12U C13A,1.11
13,U7C U8A G9C U11A C12G,1.12
14,U7C U8A G9C U11A C12A,1.1
15,U7C U8A G9C U11A C12U,1.15
16,U7C U8A G9C U10G C12G C13A,1.32
17,U7C U8A G9C U10G C12G C13G,1.13
18,U7C U8A G9C U10G C12G C13U,1.15
19,U7C U8A G9U C12A C13A,1.14
20,U7C U8A G9U C12A C13G,1.18
